Results reported in the supplement of paper PMC10126150.
± gives the standard deviation of the averaged measurements.

Test system: ATP
Experiment: switch fluorescence ratio, 500 uM ATP over buffer (Cy3 cluster intensity, sum of 5 cycles each) (fold (ratio)); higher = stronger signal-on switching upon ATP binding; sequences stand for … in TCGTCGGCAGCGTCAGATGTGTATAAGAGACAGTTTTTTTTTTTTTTTTTTTTTTTTT…TC
Settings: aptamer strand: ATP DNA aptamer (quencher-CACCTGGGGGAGTATTGCGGAGGAAGG + anchor), 100 nM annealed; ATP concentration: 500 uM
Procedure, shortened: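 Imaging in selection buffer was followed by imaging after 15 min with 500 uM ATP at 22 °C, for Cy3-labelled switching-strand clusters annealed to 100 nM quencher-labelled ATP aptamer on a modified Illumina MiSeq flow-cell. Five of these buffer/ATP cycles ran, separated by NaOH stripping and re-annealing. The fluorescence ratio per cluster is summed target-cycle over summed buffer-cycle Cy3 intensity, averaged per switch-domain sequence; clusters outside 100-1000 RFU were removed.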
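Also: ATP exposure 15 min at 22 °C before imaging.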

Sequence | switch fluorescence ratio
AGGGCGCCCG | 0.9884 ± 0.0023
TGCGCTTGTG | 0.97 ± 0.025
ACCTGTATA | 1.054 ± 0.0037
TCAGGCAGGC | 0.936 ± 0.052
TCTGAGTGCG | 1.02 ± 0.02
GTACGGGAAG | 1.19 ± 0.1
AAGGGTTAGA | 0.9864 ± 0.0021
GAGGGCGTAA | 1.06 ± 0.035
TATATATTTA | 0.988 ± 0.024
AGGTTTGGGC | 0.997 ± 0.061
GAGTCAACGG | 1.027 ± 0.0071
TGCGGGCGGC | 0.98 ± 0.024
TTTATGGCTA | 1.03 ± 0.011
ACCTAAAGGA | 1.02 ± 0.016
ATATTTCACT | 1.03 ± 0.012
GGGCTTGAAG | 1.01 ± 0.017
AATTATTCGT | 1.024 ± 0.01
CGGTGGTCAG | 1.01 ± 0.0076
AGAGGATATA | 0.988 ± 0.043
TTAAGGTTAT | 1.02 ± 0.032
TGATTATAGG | 0.992 ± 0.01
TTACACACAC | 1.53 ± 0.073
CACGACTTCC | 2.27 ± 0.12

Sequence | switch fluorescence ratio
CGGGGGCCCT | 1.01 ± 0.034
CGGTTTAAGC | 0.994 ± 0.046
ATAATTAACG | 0.986 ± 0.034
CTTTGGAACT | 1.06 ± 0.065
TTGGAAACAG | 1 ± 0.014
AGGTCCCTGT | 1.01 ± 0.042
TTTGGCATGC | 1.11 ± 0.14
AGGATGGTTT | 1.002 ± 0.0077
CGATTACTCC | 2.82 ± 0.089
GGGTACGCCG | 0.934 ± 0.025
GGGGTCCTGG | 0.943 ± 0.022
TGGGGTTATT | 0.974 ± 0.0098
ATGCCCTTCG | 1.04 ± 0.013
AGGGAACTGT | 0.97 ± 0.056
GGCGTTTTCG | 0.997 ± 0.044
ACTCGCGGGA | 0.995 ± 0.028
AGGGTGTAGA | 1.016 ± 0.0045
GGGAAAATGG | 1.01 ± 0.016
CTTGCTTTTT | 0.948 ± 0.0035
GACAGGTCGT | 1.043 ± 0.0054
AAACAGTAGA | 1.07 ± 0.042
AAGGGTGTCA | 1.022 ± 0.0032
AAACTGGGGC | 1.12 ± 0.022

Sequence | switch fluorescence ratio
AGGGGGGTT | 1.01 ± 0.06
GTTGAGGTCG | 0.995 ± 0.022
GGTTTCGGGT | 0.984 ± 0.0011
GGTGTGGTGC | 1.02 ± 0.012
CCCGCTAAGG | 1.19 ± 0.028
TTATTGGACT | 1.02 ± 0.019
GATGAATGGG | 0.996 ± 0.014
GGTGTCTTAC | 1.01 ± 0.029
ATTATTGAGA | 1.036 ± 0.004
GGCCATTTTT | 1.01 ± 0.03
CGGGGGGCAT | 0.994 ± 0.022
TTGTAGTTAC | 1.034 ± 0.0049
CAGTTGGACG | 1.04 ± 0.11
GGATGGGTGT | 1.02 ± 0.034
GTGGGACGAG | 0.971 ± 0.018
GCTACACGGC | 1.02 ± 0.033
AAAAAATGGG | 1.01 ± 0.012
GGCTATTTTG | 0.999 ± 0.073
CCTACATGTG | 1.26 ± 0.11
AGGGGGAAGA | 1 ± 0.019
CAGCAGGGGT | 1.24 ± 0.15
AATCAATTTT | 1.007 ± 0.0054
ACCAGTTATT | 1.08 ± 0.14

Sequence | switch fluorescence ratio
GTTTTTCAGG | 1 ± 0.017
ACGTGTATTT | 1.08 ± 0.09
AAGAGGGGGA | 0.996 ± 0.042
CAAGTAGTGG | 1.03 ± 0.011
TGGGGGGGGG | 1.02 ± 0.079
GTGGGATGGG | 0.973 ± 0.019
AGCAAGGCGT | 1.03 ± 0.043
GGATGGAGGC | 0.987 ± 0.059
GCTGGGTGTG | 1.03 ± 0.011
GTGGTAGGGT | 1.02 ± 0.02
TGGGCAATGG | 1.833 ± 0.018
TGATAATCGG | 0.997 ± 0.036
TTAATCGTAG | 0.991 ± 0.013
GGTGCGCATA | 1.03 ± 0.019
AAGTGGTGCT | 1.024 ± 0.0011
CGGGGGAGCT | 1.02 ± 0.029
ATCGTGGGGA | 1.012 ± 0.0075
CAATTTAATA | 1.01 ± 0.019
TTTTGATAGA | 1 ± 0.058
TGGGATAGGT | 1.01 ± 0.06
TCATTATGTG | 0.98 ± 0.023
ATCAGTGATG | 1 ± 0.046
TGTCTGCTTT | 0.997 ± 0.043

Sequence | switch fluorescence ratio
TACTGGGGGT | 1.04 ± 0.074
ATGGCAGGCG | 0.995 ± 0.04
GGGGGAGAAT | 0.986 ± 0.025
TTTATTAGTA | 0.983 ± 0.024
CCTTTTTTAT | 1.03 ± 0.085
ACGCCGGGCT | 1.07 ± 0.054
AGTTTCTGAG | 1.01 ± 0.056
TCGGGGCGGC | 1.02 ± 0.046
GCTTATATAT | 0.98542 ± 0.00086
TGTTTCTACG | 1 ± 0.056
GACGGTAGTA | 1.02 ± 0.017
GGGCTTTATG | 0.986 ± 0.023
ACAGTGGGAG | 1.011 ± 0.003
GATCGCTTGG | 1.04 ± 0.036
CTACATGCCC | 1.15 ± 0.18
CAGTGGGACT | 0.974 ± 0.024
TGCATGTACC | 1.21 ± 0.051
AAGGGGCGCC | 0.999 ± 0.052
CTGTACGGAT | 1.95 ± 1.7
TGTGATAGGG | 0.978 ± 0.06
TGATGCATAT | 1.1411 ± 0.0011
TATAGGGGAT | 1.032 ± 0.0068
CTGATAAAGT | 0.9922 ± 0.0082

Sequence | switch fluorescence ratio
TTAGAGGACT | 1.01 ± 0.025
TAGGTTGAGT | 0.996 ± 0.061
GTAAATAGCT | 1.02 ± 0.073
GTATTTCGGT | 0.972 ± 0.031
CGTATAGTAG | 0.958 ± 0.02
ATTTAGTGGG | 0.993 ± 0.048
TTTAGCTAGT | 1.01 ± 0.032
TCAATAGTAC | 1.084 ± 0.0024
CGGGTTAGTC | 1.07 ± 0.027
GCGGAATGCT | 1.2 ± 0.32
TTTTTCTGGT | 1.01 ± 0.075
ATACGAGTGC | 1.01 ± 0.012
GATTGAGCGT | 0.996 ± 0.017
GGTAGGCCTG | 0.989 ± 0.056
TTATCAGCAC | 1.136 ± 0.0044
TCGTTATGTC | 1 ± 0.032
CAGGGGCTTT | 1.04 ± 0.0067
GGTTAGAGTA | 1.01 ± 0.025
GCTGGAGGAC | 0.996 ± 0.032
ATGGGGATGT | 1.03 ± 0.079
ATCAGTGGTT | 0.974 ± 0.013
CTTGAATCGT | 0.987 ± 0.013
AAACGTCCT | 1.07 ± 0.012

Sequence | switch fluorescence ratio
AAGGCACCTG | 1.03 ± 0.042
TGGGGAAAGC | 0.983 ± 0.014
AAGCTCGGTA | 0.9866 ± 0.0065
GAGTCTTTTA | 0.959 ± 0.013
ATGGCATCGG | 1.005 ± 0.0035
CAGGATTGGG | 0.973 ± 0.043
GCTTCCTGCC | 1.4 ± 0.027
GCTCATTATT | 1.014 ± 0.0015
AAGGCATTAT | 1.005 ± 0.0081
TAGATTGTA | 1.01 ± 0.029
GGAGTTTTGT | 0.9614 ± 0.0087
CGGCGGGAGC | 1.05 ± 0.038
TGCAGGGGTG | 1.06 ± 0.022
GGTCGCTTGG | 1.04 ± 0.061
CTAGGTGGGG | 1.02 ± 0.025
TCACGGACAG | 1.3 ± 0.057
AAATTTTTGT | 1.001 ± 0.0065
GCAGGTGTGC | 1.13 ± 0.082
AGCTACTTTT | 1.022 ± 0.0035
